Usually Kd stands for a measure of binding affinity in units of concentration. As usually defined, the koff is a measure of how fast the partners let go of each other. One may read the kon as the rate constant with which the complex forms.

Experimental findings from patent publication US20250277045A1 (KEYMED BIOSCIENCES, published 2025) are described below.

Sequences and labels used below:
T1: human BCMA on cells (CHO-hBCMA clone 2C2; NCI-H929; RPMI-8226) (human, UniProt Q02223 1-184)
T1 sequence (looked up): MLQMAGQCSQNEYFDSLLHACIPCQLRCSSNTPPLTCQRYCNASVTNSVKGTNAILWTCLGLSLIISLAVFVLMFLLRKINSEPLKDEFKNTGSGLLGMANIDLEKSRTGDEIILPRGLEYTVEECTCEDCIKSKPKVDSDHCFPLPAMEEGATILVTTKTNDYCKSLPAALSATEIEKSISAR

B1: h38E2-CD3 (bispecific antibody, V domains shown)
VH 1: QVQLVQSGAEVKKPGSSVKVSCKASGYTFTNYWIGWVREAPGQGLEWMGDIYPGSGDTNYNGKFQGRVTLTADISSNTAYMELSSLRSEDTAVYYCARSYYRNDAASFAYWGQGTLVTVSS
VL 1: DIQMTQSPSSLSASVGDRVTITCQASQDVDTAVAWYQKKPGKAPKLLIYWTSTRHTGVPSRFSGSGSGTDFTFTISSLQPEDIATYFCQQFSSYPLTFGQGTKVEIK
VH 2: EVQLVESGGGLVQPGGSLRLSCAASGFTFNTYAMNWVRKAPGKGLEWVGRIRSKYNNYATYYADSVKDRFTISRDDSKNSLYLQMNSLKTEDTAVYYCVRHGNFGNSYVSWFAYWGQGTLVTVSS
VL 2: QAVVTQEPSLTVSPGGTVTLTCRSSTGAVTTSNYANWVQEKPGQAPRGLIGGTNKRAPWTPARFSGSLLGGKAALTITGAQAEDEAEYYCVLWYSNLWVFGGGTKLTVL
B2: h40C6-CD3 (bispecific antibody, V domains shown)
VH 1: QVQLVQSGSELKKPGASVKVSCKASGYIFTNFGMNWVREAPGQGLEWMGWINTYTGEQIYADDFKGRFAFSLDTSASTAYLQISSLKAEDTAVYFCARGEIYYGYDVGFVYWGQGTLVTVSS
VL 1: DIVLTQSPASLAVSPGQRATITCRASRSVTTSGYSYIHWYQKKPGQPPKLLIYLASDLEAGVPARFSGSGSGTDFTLTINPVEANDTANYYCQHSRELPWTFGQGTKVEIK
VH 2: B1 VH 2
VL 2: B1 VL 2
B3: h38D9-CD3 (bispecific antibody, V domains shown)
VH 1: B2 VH 1
VL 1: B2 VL 1 with R27K, T30S, I37M, A55G, A60S
VH 2: B1 VH 2
VL 2: B1 VL 2
B4: h23F8-CD3 (bispecific antibody, V domains shown)
VH 1: B2 VH 1 with I28T, E57D
VL 1: B2 VL 1 with R27K, T30S, I37M, D57N, A60S
VH 2: B1 VH 2
VL 2: B1 VL 2
B5: 29A11 Fab (Fab, V domains shown)
VH: EIQLVQSGPELKKPGETVKISCKASGYIFTNFGMNWVRQAPGKALKWMGWINTYTGEQIYADDFKGRFAFSLETSASTAYLQINNLKNEDTATYFCARGEIYYGYDVGFVYWGQGTLVTVSA
VL: DIVLTQSPASLAVSLGQRATISCRASKSVSTSGYSYMHWYQQKPGQPPKLLIYLASNLESGVPARFSGSGSGTDFTLNIHPVEEEDAATYYCQHSRELPWTFGGGTKLEIK
notes: Murine BCMA Fab, Ni-NTA purified
B6: 38F9 Fab (Fab, V domains shown)
VH: B5 VH
VL: NIVLTQSPASLAVSLGQRATISCRASESVDSSGNSFMHWYQQKPGQPPKLLIYLESNLESGVPARFSGSGSRTDFTLTIEPVEADDAATYYCQQSNEDPWTFGGGTKLEIK
notes: as for B5
B7: 38D9 Fab (Fab, V domains shown)
VH: B5 VH with I2V, V5Q
VL: B5 VL with A12T, R24G, A55G, N57D
notes: as for B5
B8: 3G11 Fab (Fab, V domains shown)
VH: B5 VH
VL: B5 VL with A12T, N57D, P63S
notes: Murine BCMA Fab from phage library, expressed in TG1 periplasm, purified by Ni-NTA
B9: 15H10 Fab (Fab, V domains shown)
VH: B5 VH with I2V, V5Q, I28T, A40T, E57D, Q58L, A61G, V110A
VL: B5 VL
notes: as for B5
B10: 23F8 Fab (Fab, V domains shown)
VH: B5 VH with K23T, I28T, K46R, E57D
VL: B5 VL
notes: as for B5
B11: 40C6 Fab (Fab, V domains shown)
VH: B5 VH
VL: B5 VL with V13I, K27R, S30T, M37I, N57D, S60A
notes: as for B5
B12: 34G2 Fab (Fab, V domains shown)
VH: B5 VH with I2V, V5Q, K12R, I28T, F32Y, R38K, A40T, A44G, Q58R
VL: B5 VL with A12V, K107R
notes: as for B5
B13: 6G5 Fab (Fab, V domains shown)
VH: B5 VH
VL: B5 VL with V13I, S30T, M37I, N57D, S60A, I110L
notes: as for B5
B14: 16B9 Fab (Fab, V domains shown)
VH: B5 VH with A40T, Q58T, R67L, T74V, S75P, Y105F, V110A
VL: B5 VL with A12T, M37I, N57D, I110L
notes: as for B5
B15: 15G9 Fab (Fab, V domains shown)
VH: QVQLQQSGPELVKPGASVNLSCKASGYTFTNYVIHWVKQKPGQGLEWIGYTIPYTDVTKYNEKFKAKATLTSDKSSSTAFMELSSLTSEDSAVYYCARYDFDGYFDYWGQGTTLTVSS
VL: DIVMTQAAFSNPVTLGTSASISCRSSKSLLHSNGITYLYWYLQKPGQSPQLLIYQMSNLASGVPDRFSSSGSGTDFTLRISRVEAEDVGVYYCAQNLELPWTFGGGTKLELK
notes: as for B5
B16: 38E2 Fab (Fab, V domains shown)
VH: QVQLQQSGAELVRPGTSVKMSCKAAGYTFTNYWIGWVKQRPGHGLEWIGDIYPGSGDTNYNGKFKGKATLAADISSNAAYMQLSSLTSEDSAIYYCARSYYRNDAASFAYWGQGTLVTVSA
VL: DIVMTQSHKFMSTSVGDRVNITCKASQDVDTAVAWYQQKPSQSPKLLIYWTSTRHTGVPDRFTGSGSGTDFTLTISNVQSEDLADYFCQQFSSYPLTFGAGTKLELK
notes: as for B5
B17: 23G9 Fab (Fab, V domains shown)
VH: EVQLQQSGTVLTRPGASVKLSCKASGYSFSSYWMHWLKQRPGQGLEWIGAIYPGNSRTTYNQKFKGEAKLTADTSASTAYMDLSSLTNADSAVYFCTREETYWGQGTLVTVSA
VL: DVVMTQTPLSLSVTIGQPASISCKSSQGLLDSYGVTYLNWLFQRPGQPPKRLIYLVSELDSGVPDRFTGSGSGTDFTLRISRVEAEDLGIYYCWQGSHFPLTFGAGTKLELK
notes: as for B5

Numbering of substitutions follows the chain as printed.

human CD3 on T cells (Jurkat cells; human peripheral blood CD4+ and CD8+ T cells), sequence (P07766 23-207): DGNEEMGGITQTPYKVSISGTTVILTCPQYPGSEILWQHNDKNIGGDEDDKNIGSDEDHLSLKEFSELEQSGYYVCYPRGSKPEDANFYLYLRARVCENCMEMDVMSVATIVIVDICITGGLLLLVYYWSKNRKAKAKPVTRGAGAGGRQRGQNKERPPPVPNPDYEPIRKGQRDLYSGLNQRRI

For the first assay, the target named is T1, human BCMA on cells (CHO-hBCMA clone …). The assay can be described thus: cell-based or functional assay.
As for B1, the “Killing EC50 (TDCC, LDH release; PBMC + RPMI-8226)” value (“Killing EC50” for short) was determined as 13.6 nM.

For the molecule B2, the “Killing EC50” value turned out to be 1.12 nM.

On to B3, for which the “Killing EC50” value was 1.04 nM.

As for B4, the “Killing EC50” value was determined as 0.81 nM.

A further assay addresses human CD3 on T cells (Jurkat cells; human peripheral blood CD4+ and CD8+ T cells) (human, UniProt P07766 23-207). The assay can be described thus: cell-based or functional assay.
As for B1, the “Upregulation of CD25 (%), CD4+T” value is 29%; the “Upregulation of CD25 (%), CD8+T” value stood at 38%; the “Upregulation of CD25 EC50, CD4+T” value was found to be 3.65 nM; the “Upregulation of CD25 EC50, CD8+T” value amounted to 3.65 nM. For the same molecule, the “Upregulation of CD69 (%), CD4+T” value turned out to be 55%; the “Upregulation of CD69 (%), CD8+T” value was 69%; the “Upregulation of CD69 EC50, CD4+T” value worked out at 7.4 nM; the “Upregulation of CD69 EC50, CD8+T” value was 2.32 nM.

In the case of B2, the “Upregulation of CD25 (%), CD4+T” value was found to be 25%; the “Upregulation of CD25 (%), CD8+T” value is 28%; the “Upregulation of CD25 EC50, CD4+T” value was 0.45 nM; the “Upregulation of CD25 EC50, CD8+T” value amounted to 0.49 nM. The “Upregulation of CD69 (%), CD4+T” value is 37%; the “Upregulation of CD69 (%), CD8+T” value turned out to be 44%; the “Upregulation of CD69 EC50, CD4+T” value worked out at 0.63 nM; the “Upregulation of CD69 EC50, CD8+T” value worked out at 0.21 nM.

Consider B3, for which the “Upregulation of CD25 (%), CD4+T” value came out at 29%; the “Upregulation of CD25 (%), CD8+T” value turned out to be 35%; the “Upregulation of CD25 EC50, CD4+T” value was found to be 0.77 nM; the “Upregulation of CD25 EC50, CD8+T” value came to 1.75 nM. For the same molecule, the “Upregulation of CD69 (%), CD4+T” value worked out at 57%; the “Upregulation of CD69 (%), CD8+T” value was 52%; the “Upregulation of CD69 EC50, CD4+T” value was 0.52 nM; the “Upregulation of CD69 EC50, CD8+T” value was determined as 0.37 nM.

On to B4, for which the “Upregulation of CD25 (%), CD4+T” value was 25%; the “Upregulation of CD25 (%), CD8+T” value is 34%; the “Upregulation of CD25 EC50, CD4+T” value turned out to be 0.57 nM; the “Upregulation of CD25 EC50, CD8+T” value was found to be 0.79 nM. Moreover, the “Upregulation of CD69 (%), CD4+T” value was found to be 41%; the “Upregulation of CD69 (%), CD8+T” value was 59%; the “Upregulation of CD69 EC50, CD4+T” value is 0.44 nM; the “Upregulation of CD69 EC50, CD8+T” value amounted to 0.49 nM.

The target of the next assay is T2, human BCMA-hFc kih monovalent recombinant protein (human, UniProt P0DOX5 223-449 = IgG part).
T2 construct: Knob-into-hole heterodimer with one BCMA arm, expressed in HEK293E; also called human BCMA-hFc recombinant protein
The experiment in a line: SPR (Biacore T200), BCMA-hFc captured on Protein A chip, Fab as analyte, 1:1 Langmuir. The text has this:
Kinetic constants were fitted using Biacore T200 evaluation software with a Langmuir 1:1 kinetics model.
For orientation: In SPR one partner is held on a chip, and binding of the other changes the refractive index at the surface.
Consider B5, for which the Kd was found to be 3.2 nM, the koff is 0.000243 s⁻¹ and the kon was determined as 76400 M⁻¹ s⁻¹.

B6: the Kd stood at 344 nM, the koff was determined as 0.002 s⁻¹ and the kon is 5810 M⁻¹ s⁻¹.

With B7, the Kd came to 5.6 nM, the koff stood at 0.000329 s⁻¹ and the kon was determined as 59100 M⁻¹ s⁻¹.

On to B8, for which the Kd came to 13 nM, the koff amounted to 0.000432 s⁻¹ and the kon turned out to be 33300 M⁻¹ s⁻¹.

Consider B9, for which the Kd was 18.3 nM, the koff came out at 0.00069 s⁻¹ and the kon was 37800 M⁻¹ s⁻¹.

Take B10: the Kd came to 5.6 nM, the koff is 0.000322 s⁻¹ and the on-rate constant (kon) is 57700 M⁻¹ s⁻¹.

Consider B11, for which the equilibrium dissociation constant (Kd) came to 6.4 nM, the koff was 0.000271 s⁻¹ and the kon was 42100 M⁻¹ s⁻¹.

In the case of B12, the Kd is 5 nM, the off-rate constant (koff) came out at 0.000705 s⁻¹ and the kon came out at 142000 M⁻¹ s⁻¹.

Take B13: the Kd was 2.1 nM, the koff came to 6.13e-05 s⁻¹ and the on-rate constant (kon) was determined as 29400 M⁻¹ s⁻¹.

As to B14, the Kd is 4.1 nM, the koff was found to be 0.000476 s⁻¹ and the kon was found to be 117000 M⁻¹ s⁻¹.

On to B15, for which the Kd came to 12.2 nM, the koff was 0.0126 s⁻¹ and the kon amounted to 1.03e+06 M⁻¹ s⁻¹.

On to B16, for which the Kd amounted to 8.1 nM, the koff turned out to be 0.000798 s⁻¹ and the kon was 98800 M⁻¹ s⁻¹.

As for B17, the Kd came out at 76.9 nM, the koff stood at 0.000313 s⁻¹ and the kon worked out at 4070 M⁻¹ s⁻¹.
